From publication PMC5014651

Legend:
[1] = target: NS1B C-terminal domain (residues 141-281 of NS1B, influenza B/Lee/1940) (influenza B virus (B/lee/1940)) (UniProt P03502); assay: NMR rotational correlation time
[2] = target: NS1B C-terminal domain (residues 141-281 of NS1B, influenza B/Lee/1940) (influenza B virus (B/lee/1940)) (UniProt P03502); assay: NMR titration
[3] = target: NS1A CTD (Influenza A virus (Udorn), UniProt P03495 85-215); assay: fluorescence polarization
[4] = target: T1, NS1B CTD wt (Influenza B virus (B/Lee/1940), UniProt P03502 141-281); assay: fluorescence polarization
T1 sequence: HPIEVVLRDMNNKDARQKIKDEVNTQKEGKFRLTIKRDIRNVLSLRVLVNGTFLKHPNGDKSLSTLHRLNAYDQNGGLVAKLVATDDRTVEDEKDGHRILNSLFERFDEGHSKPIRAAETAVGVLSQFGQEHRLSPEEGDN

NS1A CTD, sequence (P03495 85-215): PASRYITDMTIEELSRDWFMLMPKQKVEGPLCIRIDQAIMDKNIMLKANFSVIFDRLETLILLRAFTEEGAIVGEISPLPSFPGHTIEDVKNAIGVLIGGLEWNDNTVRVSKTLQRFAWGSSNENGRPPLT

For “NS1B C-terminal domain (residues 141-281 of NS1B, influenza B/Lee/1940) (from UniProt P03502 141-281) (domain or fragment)”, the Kd [1] was 700 µM, the stoichiometry N [1] was 2 and the Kd [2] was 600 µM.

B1: 16-bp dsRNA (dsRNA)
RNA 1: CGCCUGUAGAGGAUGG
RNA 2: CCAUCCUCUACAGGCG
For B1, the binding result [3] was “no binding” and the Kd [4] was 0.13 ± 0.03 µM.

B2: 16 minus ssRNA (antisense) (ssRNA)
RNA: CGCCUGUAGAGGAUGG
Molecule B2 has a Kd [4] of 0.58 ± 0.05 µM.
